Measured values reported in the MegaScale stability set (Tsuboyama et al. 2023).

B1: EEHEE_rd4_0003 (parent)
chain: KKVTINGVEIKFNNPEEAVKFALELAKRLNLRIEFHGDQIKIE

Variants of: B1
Experiment: folding stability dG (cDNA display proteolysis); higher = more stable
Settings: PBS, room temperature

Folding stability dG [kcal/mol] of substitutions, site by site:
F21: M 1.88 | W 2.81 | Q 1.57 | L 2.03 | H 1.52 | I 2.03 | S 1.47 | T 1.56 | Y 2.49 | P 0.505 | E 1.35 | K 1.66 | G 1.16
K27: T 2.52 | R 2.79 | E 2.38 | C 3.23 | S 2.52 | Y 2.44 | A 2.72 | M 2.57 | W 2.47 | N 2.32 | H 2.48 | I 2.4 | V 2.24 | G 2.39 | P 1.37 | L 2.62 | F 2.63 | Q 2.47 | D 2.03
A22: K 1.21 | N 0.81 | Y 2.39 | M 2.59 | G 1.58 | S 1.59 | D 0.407 | L 2.98 | H 1.32 | R 1.16 | Q 1.22 | F 2.74 | W 2.68 | T 2 | E 0.979 | C 2.79 | P 0.416 | V 2.74 | I 3.21
L29: V 1.77 | F 2.65 | K 1.6 | M 2.38 | W 2.43 | R 1.43 | Q 1.73 | H 2.21 | P 1.52 | N 1.72 | A 1.74 | G 1.88 | I 1.9 | E 1.66 | T 1.61 | S 1.55 | C 3.71 | D 1.29 | Y 2.67
V19: R 2.5 | E 2.04 | C 3.56 | G 1.54 | A 2.19 | W 2.98 | D 1.61 | P 1.04 | F 2.75 | M 2.94 | I 2.9 | T 2.22 | K 2.33 | Y 2.85 | L 3.07 | H 2.21 | S 1.86 | Q 2.06 | N 1.83
L25: Q 1.62 | W 2.53 | N 1.32 | G 0.776 | M 2.46 | C 2.82 | R 0.955 | V 2.24 | I 2.53 | Y 2.72 | K 0.98 | T 1.7 | E 1.56 | F 2.44 | S 1.11 | H 1.48 | A 1.9 | P -0.052 | D 0.443
N14: L 2.56 | Y 2.41 | Q 2.06 | R 2.44 | W 2.39 | E 1.86 | I 2.36 | H 2.37 | S 2.93 | M 2.38 | T 3.02 | K 2.35 | D 2.56 | C 2.98 | A 2.25 | F 2.64 | V 2.36 | G 2.22 | P 2.4
R28: W 2.68 | L 2.57 | A 2.39 | N 1.99 | H 2.22 | I 2.54 | V 2.36 | T 2.2 | F 2.5 | M 2.5 | G 1.91 | S 2.35 | C 3.28 | Q 2.21 | K 2.33 | Y 2.63 | E 2.08 | P 1.29 | D 1.69
L31: A 2.72 | C 2.84 | D 0.559
K20: P 1.69 | G 1.77 | S 2.24 | I 2.38 | V 2.2 | R 2.81 | F 2.51 | A 2.64 | T 2.24 | N 2.13 | M 2.44 | H 2.2 | Q 2.44 | L 2.49 | D 1.93 | C 3.78 | E 2.28 | Y 2.47
